# Like-named read-outs stand apart in the source and are kept apart here.
# Experiments:
# [1] = molecular target: Calmodulin fluorescently labelled with Alexa Fluor 488 (UniProt P0DP23); assay: AUC
# [2] = molecular target: Calmodulin fluorescently labelled with Alexa Fluor 488 (UniProt P0DP23); assay: AUC; remark: listed apart in the source
Substance,Kd [1] [nM],percent free calmodulin at 1:0.5 CaM:nNOSred [1] [%],percent free calmodulin at 1:0.5 CaM:nNOSred [2] [%]
nNOSred R753A (domain or fragment),468,64.6,
"nNOSred wt (rat neuronal nitric oxide synthase reductase domain, wild type) (domain or fragment)",167,30.9,40
